Source: patent US6713276B2, “Modulation of Aβ levels by β-secretase BACE2” (Scios, Inc., priority 2000, dated 2004)

Assays:
APP751sw = assay: cell-free β-secretase assay, β-NTF ELISA, APP751sw substrate; type: biochemical, human; conditions: membrane extracts of transfected HEK293 cells, pH 4.5, 37° C.
Method: The β-secretase assay consists of two different parts, an incubation or reaction phase to generate β-NTF and an ELISA part to capture and measure the β-NTF generated by β-secretase. The β-secretase ELISA was performed as follows. Each well of a 96 well plate containing a flat bottom (high protein binding, Corning, N.Y.) was coated with 100 μl of the monoclonal capture antibody 8E5 (at ˜8-10 μg/ml) (Johnson-Wood et al. Proc. Natl. Acad. Sci. USA 94: 1550-1555 [1997]). The plate was then covered with parafilm and incubated overnight at 4° C. or alternatively for 2 hours at 37° C. […]
One hundred μl of a 1:5000 dilution of a goat anti rabbit IgG-HRP in Antibody-Conjugate Buffer was then added to each well, and the plate incubated at room temperature for one hour. […] After sufficient blue color had developed, the reactions were stopped by adding 100 μl of 5N H2SO4 to each well, and the amount of βNTF was determined by reading the plate at 450 nm in a Softmax spectrophotometer.
Equal amounts of membrane extracts from either mock, BACE or BACE2 transfected HEK293 cells were incubated with partially purified full length APP751 sw or APP751wt for the indicated times. The formation of β-NTF was then determined using the respective β-NTF specific ELISA as described in General Methodology.

[1] = test system: APP751sw processing in HEK293T cells; assay: co-transfection with APP751sw in HEK293T cells, ELISA of conditioned medium; type: cell-based, human
Method: Expression vectors containing BACE and BACE2 cDNAs were transfected into HEK293T cells in the presence of APP751sw or CT100 (Shoji et al., Science 258: 126-129 [1992]; Lichtenthaler et al., Proc. Natl. Acad. Sci. USA 96: 3053-3058 [1999]). Transfections were performed in 24 well plates using Lipofectamine Plus (Gibco/BRL, Bethesda, Md.) and DNA concentrations were kept constant by including non-specific DNA. Expression plasmids were tested for BACE and BACE2 expression by Western blotting. Cell culture supernatants were collected 48 hours and 72 hours post-transfection, and assayed for α-NTF, β-NTF and Aβ formation. β-NTF measurement was performed as described below. α-NTF was captured like β-NTF but was detected with biotinylated 2H3 (Johnson-Wood et al., Proc. Nati. Acad. Sci. USA 94: 1550-1555 [1997]). Aβ levels were determined by an ELISA using monoclonal antibodies 266 for capture and biotinylated 3D6 for detection (see Johnson-Wood et al., [1997] ibid for antibody epitope description). Aβ42, in contrast, was captured using 21F 12 and detected with biotinylated 3D6. Cell extracts prepared 72 hour post-transfection were separated by SDS-PAGE (Novex) and probed with CT695 (Zymed) for APP and CTFs as well as with an Aβ specific monoclonal antibody WO2 (kindly provided by K. Beyreuther; Ida et al., J. Biol. Chem. 271: 22908-22914 [1996]). Alternatively, co-transfection experiments using APP751sw and BACE or BACE2 were performed in the human neuroblastoma cell line, SK-N-MC, available from the American Type Culture Collection (ATCC).
Given the ability of BACE2 to cleave APP at the β-secretase site in vitro, we investigated the role of BACE2 in HEK293T cells relative to BACE. Variable amounts of BACE2 or BACE expression plasmids were co-transfected with constant amount of DNA encoding APP751sw substrate cDNA. Cell supernatants were collected 48 hours or 72 hours post-transfection and analyzed for α-NTF, β-NTF, total Aβ and Aβ42 as described in Genenral Methodology. Expression of APP751 sw alone led to a significant increase in β-NTF, α-NTF, total Aβ and Aβ42 (FIGS. 2a-d) compared to mock-transfected cells. […] This was most likely due to the fact that overexpressed APP751sw was in excess and was already very efficiently cleaved by endogenous BACE (compare mock versus APP751 sw alone). BACE effects on Aβ formation have been reported to be variable (Vassar et al., [1999] ibid; Sinha et al,[1999] ibid; Hussain et al., [1999] ibid; Yan et al, [1999] ibid; Lin et al,[2000] ibid) and thus it appears that additional factors such as γ-secretase might become limiting.
In an independent experiment, we addressed whether BACE2 competed with the ability of BACE to cleave APP at the β-secretase site. HEK293T cells were co-transfected with constant amounts of APP751sw and BACE, and increasing levels of BACE2. β-NTF and Aβ levels were then measured in culture supernatant (FIG. 3). […] BACE and BACE2 appeared to compete for the substrate and thus the effect on β-NTF might rather be steric. In particular, if BACE2 is a less efficient β-secretase in competing with BACE for substrate, it would reduce the overall β-secretase cleavage efficiency (see also FIG. 4). However, this reduction is insufficient to account for the Aβ reduction with BACE2.

Row | Molecule | β-NTF formation (β-secretase cleavage in vitro) (APP751sw) | Aβ42 in conditioned medium ([1]; co-transfected with APP751sw) | total Aβ in conditioned medium ([1]; co-transfected with APP751sw) | α-NTF levels in conditioned medium ([1]; co-transfected with APP751sw) | β-NTF levels in conditioned medium ([1]; co-transfected with APP751sw) | total OD of α-NTF plus β-NTF ([1]; co-transfected with APP751sw, APP751sw alone ~2.59) [OD] | β-NTF formation in the presence of co-transfected BACE ([1]; constant APP751sw and BACE) | Aβ levels in the presence of co-transfected BACE ([1]; constant APP751sw and BACE, increasing BACE2) | Aβ production (total Aβ, Aβ42) with aspartate mutant ([1]; co-transfected with APP751sw or CT100)
1 | BACE2: human aspartyl protease, close homolog of BACE (SEQ ID NO: 2), expressed from pcDNA3.1(−)/BACE2 in transfected cells (protein) MGALARALLLPLLAQWLLRAAPELAPAPFTLPLRVAAATNRVVAPTPGPGTPAERHADGLALALEPALASPAGAANFLAMVDNLQGDSGRGYYLEMLIGTPPQKLQILVDTGSSNFAVAGTPHSYIDTYFDTERSSTYRSKGFDVTVKYTQGSWTGFVGEDLVTIPKGFNTSFLVNIATIFESENFFLPGIKWNGILGLAYATLAKPSSSLETFFDSLVTQANIPNVFSMQMCGAGLPVAGSGTNGGSLVLGGIEPSLYKGDIWYTPIKEEWYYQIEILKLEIGGQSLNLDCREYNADKAIVDSGTTLLRLPQKVFDAVVEAVARASLIPEFSDGFWTGSQLACWTNSETPWSYFPKISIYLRDENSSRSFRITILPQLYIQPMMGAGLNYECYRFGISPSTNALVIGATVMEGFYVIFDRAQKRVGFAASPCAEIAGAAVSEISGPFSTEDVASNCVPAQSLSEPILWIVSYALMSVCGAILLVLIVLLLLPFRCQRRPRDPEVVNDESSLVRHRWK | time-dependent increase in β-NTF formation | striking reduction of total Aβ and Aβ42 to levels found in mock-transfected cells | striking reduction of total Aβ and Aβ42 to levels found in mock-transfected cells | slightly higher levels of α-NTF in conditioned medium from BACE2 versus BACE transfected cells | the effect on β-NTF levels was very similar to that of BACE | ~2.5 | reduced the ability of BACE to form β-NTF in a dose-dependent manner | dramatic dose-dependent reduction in Aβ levels | 
2 | BACE2 D110A: single D110A BACE2 mutant of a critical aspartate residue, made by site-directed mutagenesis (protein) ALEPALASPAGAANFLAMVDNLQGDSGRGYYLEMLIGTPPQKLQILVATGSSNFAVAGTPHSYIDTYFDTERSSTYRSKGFDVTVKYTQGSWTGFVGEDLVTIPKGFNTSFLVNIATIFESENFFLPGIKWNGILGLAYATLAKPSSSLETFFDSLVTQANIPNVFSMQMCGAGLPVAGSGTNGGSLVLGGIEPSLYKGDIWYTPIKEEWYYQIEILKLEIGGQSLNLDCREYNADKAIVDSGTTLLRLPQKVFDAVVEAVARASLIPEFSDGFWTGSQLACWTNSETPWSYFPKISIYLRDENSSRSFRITILPQLYIQPMMGAGLNYECYRFGISPSTNALVIGATVMEGFYVIFDRAQKRVGFAASPCAEIAGAAVSEISGPFSTEDVASNCVPAQSLSEPILWIVSYALMSVCGAILLVLIVLLLLPFRCQRRPRDPEVVNDESSLVRHRWK | lost their ability to cleave at the β-secretase site in vitro |  |  |  |  |  | compete as well if not slightly more effectively with BACE to form β-NTF |  | clearly reversed the suppression of Aβ production
